In patent publication US20240150490A1 (MABPRO A S, published 2024):
Positions count from the first letter of the chain named.

B1: CA9hu-1_HC4LC4 (antibody, V domains shown)
VH: EVQLVESGGGLVQPGGSLRLSCAASGFTFTDYYMHWVRQAPGRGLEWVAFIRNKASGYTPQYSASVKGRFTISRDNAENSLYLQMNSLRAEDTAVYYCVRGGHAGSNYWYFDVWGKGTTVTVSS
VL: DIQMTQSPSSLSASVGDRVTINCHVSQNINVWLSWYQQKPGEAPKLLIYQASNLHTGVPSRFSGSGSGTGFTLTIRSLQPEDYATYYCQQGQSYPFTFGQGTKLEIK
notes: Humanized from murine VII/20; also called HC4LC4 (CA9hu-1)
B2: CA9hu-1_HC3LC1 (antibody, V domains shown)
VH: QVQLVQSGGGLVQPGRSLRLSCTASGFTFTDYYMHWVRQAPGKGLEWVGFIRNKASGYTPQYSASVKGRFTISRDDSKTIAYLQMNSLKTEDTAVYYCVRGGHAGSNYWYFDVWGQGTLVTVSS
VL: B1 VL with N22T, E42K, K45N, G70H, R76S, Y83I, Q100G, L104V
notes: Humanized from murine VII/20; also called HC3LC1 (CA9hu-1)
B3: CA9hu-1_HC3LC2 (antibody, V domains shown)
VH: B2 VH
VL: B1 VL with S10T, N22T, E42N, G70E, R76G, E81D, Y83F, A84V, L104V
notes: Humanized from murine VII/20; also called HC3LC2 (CA9hu-1)
B4: CA9hu-1_HC4LC2 (antibody, V domains shown)
VH: B1 VH
VL: B1 VL with S10T, N22T, E42N, G70E, R76G, E81D, Y83F, A84V, L104V
notes: Humanized from murine VII/20; also called HC4LC2 (CA9hu-1)
B5: CA9hu-1_HC4LC1 (antibody, V domains shown)
VH: B1 VH
VL: B1 VL with N22T, E42K, K45N, G70H, R76S, Y83I, Q100G, L104V
notes: Humanized from murine VII/20; also called HC4LC1 (CA9hu-1)
B6: CA9hu-1_HC5LC5 (antibody, V domains shown)
VH: B2 VH with Q1E, Q6E, R16G, T23A, T79N, I80S, A81L, L119M
VL: B1 VL with N22T, E42K, G70D, L73F, R76S, Y83I
notes: Humanized from murine VII/20; also called HC5LC5 (CA9hu-1)
B7: CA9hu-1_HC3LC4 (antibody, V domains shown)
VH: B2 VH
VL: B1 VL
notes: Humanized from murine VII/20; also called HC3LC4 (CA9hu-1)
B8: CA9hu-1_HC2LC1 (antibody, V domains shown)
VH: EVRLVESGGGLVQPGGSLRLSCAASGFTFTDYYMHWVRQAPGKGLEWLGFIRNKASGYTPQYSASVKGRFTISRDDSTNSLYLQMNSLKTEDTAIYYCVRGGHAGSNYWYFDVWGQGTLVTVSS
VL: B1 VL with N22T, E42K, K45N, G70H, R76S, Y83I, Q100G, L104V
notes: Humanized from murine VII/20; also called HC2LC1 (CA9hu-1)
B9: CA9hu-1_HC2LC3 (antibody, V domains shown)
VH: B8 VH
VL: B1 VL with N22T, G70D, R76S, Y83F
notes: Humanized from murine VII/20; also called HC2LC3 (CA9hu-1)
B10: CA9hu-1_HC1LC5 (antibody, V domains shown)
VH: B1 VH with R43K, N76D, A77S, E78K, R89K, A90I, K116Q
VL: B1 VL with N22T, E42K, G70D, L73F, R76S, Y83I
notes: Humanized from murine VII/20; also called HC1LC5 (CA9hu-1)
B11: CA9hu-1_HC5LC4 (antibody, V domains shown)
VH: B8 VH with R3Q, L48V, T78K, I95V, L119M
VL: B1 VL
notes: Humanized from murine VII/20; also called HC5LC4 (CA9hu-1)
B12: CA9hu-1_HC3LC5 (antibody, V domains shown)
VH: B2 VH
VL: B1 VL with N22T, E42K, G70D, L73F, R76S, Y83I
notes: Humanized from murine VII/20; also called HC3LC5 (CA9hu-1)
B13: CA9hu-1_HC3LC3 (antibody, V domains shown)
VH: B2 VH
VL: B1 VL with N22T, G70D, R76S, Y83F
notes: Humanized from murine VII/20; also called HC3LC3 (CA9hu-1)
B14: CA9hu-1_HC2LC5 (antibody, V domains shown)
VH: B8 VH
VL: B1 VL with N22T, E42K, G70D, L73F, R76S, Y83I
notes: Humanized from murine VII/20; also called HC2LC5 (CA9hu-1)
B15: CA9hu-1_HC2LC2 (antibody, V domains shown)
VH: B8 VH
VL: B1 VL with S10T, N22T, E42N, G70E, R76G, E81D, Y83F, A84V, L104V
notes: Humanized from murine VII/20; also called HC2LC2 (CA9hu-1)
B16: CA9hu-1_HC4LC3 (antibody, V domains shown)
VH: B1 VH
VL: B1 VL with N22T, G70D, R76S, Y83F
notes: Humanized from murine VII/20; also called HC4LC3 (CA9hu-1)
B17: CA9hu-1_HC4LC5 (antibody, V domains shown)
VH: B1 VH
VL: B1 VL with N22T, E42K, G70D, L73F, R76S, Y83I
notes: Humanized from murine VII/20; also called HC4LC5 (CA9hu-1)
B18: CA9hu-1_HC5LC2 (antibody, V domains shown)
VH: B8 VH with R3Q, L48V, T78K, I95V, L119M
VL: B1 VL with S10T, N22T, E42N, G70E, R76G, E81D, Y83F, A84V, L104V
notes: Humanized from murine VII/20; also called HC5LC2 (CA9hu-1)
B19: CA9hu-1_HC2LC4 (antibody, V domains shown)
VH: B8 VH
VL: B1 VL
notes: Humanized from murine VII/20; also called HC2LC4 (CA9hu-1)
B20: CA9hu-1 chimeric HC0LC0 (antibody, V domains shown)
VH: EVKLVESGGGLVQPGGSLRLSCATSGFTFTDYYMHWVRQPPGMALEWLAFIRNKASGYTPQYSASVKGRFTISRDVSQTILYLQMNTLRPEDSATYYCVRGGHAGSNYWYFDVWGAGTTVTVSS
VL: DIQMNQSPSSLSASLGDTITIACHVSQNINVWLSWYQQKPGNIPKLLIYQASNLHTGVPSRFTGSGSGTGFTLTISSLQPEDIATYYCQQGQSYPFTFGSGTKLEIK
notes: also called HC0LC0 (CA9hu-1); chimeric variant

What follows are binders tested against CA IX expressed by cells (C-33a_CA IX transfectants; hypoxic BT-20, JIMT-1, 8-MG-BA and 42-MG-BA cells) (human, UniProt Q16790 38-459) (assay: cell-based or functional assay).
For B1, the “ADCC reporter activity, induction over no Ab, BT-20 cells” value was greater than 25 fold.

These binders were tested against recombinant human CA IX (human, UniProt Q16790 38-414) (assay: SPR (Biacore 2000), antibody captured on CM5 chip, rh CA IX in flow, 25 C).
Description: In order to determinate the antigen-binding affinity of humanized variants, measurements of affinity constant (KD) for antibodies binding to CA IX were performed by SPR using a Biacore 2000 (T200 in case of CA9hu-2) instrument (GE Healthcare, Piscataway, NJ USA). Each humanized antibody variant was captured on the CM5 sensor chip and recombinant human CA IX (rh CA IX; 42 kDa; R&D Systems, Inc., Minneapolis MN, USA) protein as an antigen was added to the buffer flowing over the chip. The setting details of quantitative interaction analysis between humanized antibodies and rh CA IX were as follows: flow rate 30 μl/min; analysis temperature 25° C.; analysis buffer (10mM HEPES pH 7.4, 150 mM NaCl, […], 0.05% Tween 20). Results from SPR analysis are expressed as the equilibrium dissociation constant (KD) (Table 7).
B1 gave a Kd of 15.2 nM.
B2 gave a Kd of 91 nM.
B3 showed a Kd of 81 nM.
With B4 the Kd was 9.1 nM.
In the case of B5, the Kd is reported as 15.2 nM.
B6 showed a Kd of 64 nM.
B7 showed a Kd of 97 nM.
For B8, the Kd was 60 nM.
Binder B9 has a Kd of 51 nM.
Binder B10 has a Kd of 96 nM.
Work on B11 yielded a Kd of 54 nM.
Work on B12 yielded a Kd of 83 nM.
With B13 the Kd was 82 nM.
B14 gave a Kd of 56 nM.
For B15, the Kd was 53 nM.
B16 gave a Kd of 10.7 nM.
B17 gave a Kd of 12.3 nM.
Work on B18 yielded a Kd of 52 nM.
For B19, the Kd was 60 nM.
For B20, the Kd was 22 nM.
